Target: PER2 (V5-Per2) (UniProt O15055)
Test: co-immunoprecipitation of V5-Per2 and HA-GSK3β
Conditions: reference: wild-type HA-GSK3β; sites S9

GSK3β (HA-tagged, Addgene plasmid) (from UniProt P49841) HA-GSK3β S9A
binding against the reference: lost

— publication PMC9708791
